This is an account of results in US20050142582.

In this series the test system is USF1 (upstream stimulatory factor) (Ciona intestinalis). Nature of the series: SPR. The conditions noted are these: binding good, dimer.
Sequence of USF1 (upstream stimulatory factor) (Ciona intestinalis) (chain, as listed by the source): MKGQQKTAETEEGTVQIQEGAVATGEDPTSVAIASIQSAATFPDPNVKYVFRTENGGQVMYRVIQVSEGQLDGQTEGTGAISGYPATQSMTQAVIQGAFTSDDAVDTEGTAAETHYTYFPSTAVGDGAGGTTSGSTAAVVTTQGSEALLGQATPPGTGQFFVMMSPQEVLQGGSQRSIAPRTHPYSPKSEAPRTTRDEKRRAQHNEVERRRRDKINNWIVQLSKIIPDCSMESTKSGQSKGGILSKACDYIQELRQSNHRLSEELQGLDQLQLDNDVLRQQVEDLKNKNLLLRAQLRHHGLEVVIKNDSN

What is called Kd is the equilibrium constant for the complex coming apart. Read a low Kd as a tighter complex. For the sequence “GGTATTGAGGGTCGCATCGGCAAAAAGGATTGCCCAGGTCTGCTGTCTAGCCGGATTCGATGGCTCTAACTCTCCTCT [6H1]”, the Kd is 36 nM. Sequence “GGTATTGAGGGTCGCATCGGCTTCAGGTTGGTCTGGTTGGGTTTGGCTCCTGTGTACGGATGGCTCTAACTCTCCTCT [6H5]” displayed a Kd of 176 nM. This Kd lies about 4.9-fold higher than the previous one.
